From patent CN116478288A

Legend:
[1] = target: 食蟹猴CD47 (on overexpressing CHO-K1 cells) (cynomolgus monkey); assay: flow cytometry, control human IgG on CHO-K1 overexpressing cynomolgus CD47 (PBS background 92.8)
[2] = target: 人源CD47 (on cells: hCD47-overexpressing CHO-K1; Raji) (human) (UniProt Q08722); assay: flow cytometry, control human IgG on CHO-K1 overexpressing human CD47 (PBS background 139.0)
Sequence of UniProt Q08722 (Q08722 19-323): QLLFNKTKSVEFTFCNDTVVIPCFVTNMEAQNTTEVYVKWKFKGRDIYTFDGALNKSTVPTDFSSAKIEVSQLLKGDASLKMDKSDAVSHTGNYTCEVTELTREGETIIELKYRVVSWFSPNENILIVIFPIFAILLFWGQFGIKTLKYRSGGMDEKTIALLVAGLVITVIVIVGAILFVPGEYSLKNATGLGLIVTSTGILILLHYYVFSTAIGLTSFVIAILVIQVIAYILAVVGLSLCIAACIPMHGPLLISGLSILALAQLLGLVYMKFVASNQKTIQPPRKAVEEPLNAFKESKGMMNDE

human IgG (antibody)
MFI [1]: 71 MFI
MFI [2]: 101 MFI
